PMC10245715 (bioRxiv, 2023)

Biological target: p97 (valosin-containing protein, VCP), full-length, wildtype, human (human, UniProt P55072 1-806)
Assay: SEC

Sequence of p97 (valosin-containing protein, VCP), full-length, wildtype, human (P55072 whole entry): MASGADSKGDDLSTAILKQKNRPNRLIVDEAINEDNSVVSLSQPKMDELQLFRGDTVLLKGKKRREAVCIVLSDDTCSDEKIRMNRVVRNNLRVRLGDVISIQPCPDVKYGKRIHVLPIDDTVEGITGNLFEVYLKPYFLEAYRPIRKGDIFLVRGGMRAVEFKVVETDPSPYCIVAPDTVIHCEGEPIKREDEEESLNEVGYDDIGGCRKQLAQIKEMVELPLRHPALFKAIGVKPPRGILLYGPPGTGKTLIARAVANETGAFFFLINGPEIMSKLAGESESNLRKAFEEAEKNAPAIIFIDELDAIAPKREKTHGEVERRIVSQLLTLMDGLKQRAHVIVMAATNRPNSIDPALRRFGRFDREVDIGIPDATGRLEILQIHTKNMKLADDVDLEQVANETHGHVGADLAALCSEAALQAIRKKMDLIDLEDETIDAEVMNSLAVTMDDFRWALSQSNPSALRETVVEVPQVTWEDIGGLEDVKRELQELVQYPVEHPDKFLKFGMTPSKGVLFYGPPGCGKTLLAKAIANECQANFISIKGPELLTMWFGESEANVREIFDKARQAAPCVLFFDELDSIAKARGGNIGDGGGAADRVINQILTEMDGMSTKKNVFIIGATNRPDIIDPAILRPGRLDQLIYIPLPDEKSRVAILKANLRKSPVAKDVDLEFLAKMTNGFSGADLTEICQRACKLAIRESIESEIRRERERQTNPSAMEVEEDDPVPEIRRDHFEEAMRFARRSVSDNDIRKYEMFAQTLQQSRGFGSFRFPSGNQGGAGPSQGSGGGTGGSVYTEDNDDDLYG

B1: UBXD1 double mutant containing both the lariat and H4 changes, full-length (natural protein)
chain: MKKFFQEFKADIKFKSAGPGQKLKESVGEKAHKEKPNQPAPRPPRQGPTNEAQMAAAAALARLEQKQSRAWGPTQSRDVTQERIQNKAVLTEASGSPEAPGTNVVSEPREEGSAHLAVPGVYFTCPLTGATLRKDQRDACIKEAILLHFSTDPVAASIMKIYTFNKDQDRVKLGVDTIAKYLDNIHLHPEEEKYRKIKLQNKVFQERINCLEGTHEFFEAIGFQKVLLPAQDQEDPEEFYVLSETTLAQPQSLERHKEQLLAAEPVRAKLDRQRRVFQPSPLASQFELPGDFFNLTAERIKEEQRLESEAVRRLSVLRTKAMREKEEQRGLRKYNYTLLRVRLPDGCLLQGTFYARERLGAVYGFVREALQSDWLPFELLASGGQKLSEDENLALNECGLVPSALLTFSWDMAVLEDIKAAGAEPDSILKPELLSAIEKLL
binding result: binds
